Data reported in patent publication US5453371.

Target: 4-phenylazo-benzyloxycarbonyl-L-Pro-Leu-Gly-L-Pro-D-Arg.HCl

“Achromobacter collagenase gene product of Vibrio alginolyticus produced in recombinant Escherichia coli JM109 (plasmid pHUC14 or pLCO-1) (enzyme)” showed a Collagenase activity of 189 U.
